# B1: AsHPPDm-A111T-F372A-02: nucleotide sequence encoding Avena sativa HPPD with A111T+F372A; vector DBN11781 (nucleic acid)
# DNA: ATGCCACCTACTCCAGCTACAGCTACTGGTGCTGCTGCTGCTGCCGTTACTCCTGAGCACGCTGCCAGGTCATTCCCCAGGGTGGTTCGCGTGAACCCCAGATCTGATAGGTTCCCAGTTCTGAGCTTCCACCATGTTGAGCTGTGGTGCGCTGATGCTGCTTCTGCTGCTGGCAGGTTCTCTTTCGCTCTTGGTGCTCCACTCGCTGCTAGATCTGATCTGTCTACAGGAAATAGCGCTCATGCCTCACTCCTGCTTCGCTCAGGTGCTTTGGCCTTCCTCTTCACCGCTCCATATGCTCCCCCACCTCAGGAGGCTGCTACTGCTGCTACTACAGCCTCCATTCCAAGCTTCTCAGCTGATGCCGCTAGAACCTTCGCTGCTGCTCATGGACTTGCCGTGAGGTCTGTTGGTGTTCGCGTGGCTGATGCTGCTGAGGCTTTCAGAGTTTCCGTTGCCGGCGGAGCTAGGCCAGCTTTCGCTCCTGCTGATTTGGGACATGGTTTCGGCCTGGCTGAGGTTGAGCTTTACGGTGACGTGGTTCTCCGCTTCGTGTCTTACCCAGATGAGACTGACCTGCCTTTCCTTCCCGGCTTCGAGAGAGTTTCCTCTCCTGGTGCCGTGGATTACGGCCTGACAAGGTTCGACCACGTGGTTGGAAACGTTCCCGAGATGGCTCCAGTGATCGATTACATGAAGGGCTTCCTTGGATTCCATGAGTTCGCCGAGTTCACTGCTGAGGACGTGGGAACCACTGAGTCCGGTTTGAACTCTGTGGTTCTCGCCAACAATTCTGAGGCTGTTTTGCTCCCTCTGAATGAGCCTGTGCATGGAACCAAGAGGAGAAGCCAGATTCAAACTTACCTGGAGTACCACGGTGGCCCTGGAGTTCAGCATATCGCCCTTGCTTCTAATGATGTGTTGCGCACACTCAGAGAGATGCGCGCCAGAACCCCCATGGGAGGTTTCGAGTTCATGGCCCCACCACAGGCTAAGTACTACGAGGGCGTTAGAAGGATTGCTGGAGACGTGTTGAGCGAGGAGCAGATCAAGGAGTGCCAAGAGCTGGGTGTTCTTGTGGATAGGGATGACCAGGGCGTTCTGCTTCAAATTGCCACTAAGCCAGTGGGCGACCGCCCTACATTCTTCCTTGAGATGATTCAAAGAATCGGCTGCATGGAGAAGGATGAGGTTGGACAGGAGTACCAAAAGGGCGGATGCGGTGGCTTCGGAAAGGGTAACTTCAGCGAGTTGTTCAAGTCAATCGAGGACTACGAGAAGAGCCTCGAGGTGAAGCAGTCAGTGGTTGCCCAAAAGTCCTGA
# modifications: AsHPPDm-A111T-F372A-02 Nucleotide Sequence
# notes: vector DBN11781
# Tests used:
# [1] = tested on: Arabidopsis thaliana T1 plants; experiment: Isoxaflutole tolerance of transgenic Arabidopsis thaliana T1 plants (spray, bleached leaf area grade, damage score); format: in vivo; conditions: Table 11; for Classification and statistics of the grade of pesticide damage Grade 0: number of plants at grade 0; for Classification and statistics of the grade of pesticide damage Grade 1: number of plants at grade 1; for Classification and statistics of the grade of pesticide damage Grade 2: number of plants at grade 2; for Classification and statistics of the grade of pesticide damage Grade 3: number of plants at grade 3; for Scores: pesticide damage score;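 on Scores: Weighted damage index from 0 to 100 where higher means more damage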
# Source text: (§1) T1 transformants were initially selected from the untransformed seeds using a glufosinate selection scheme. The Arabidopsis thaliana T1 plants (AsHPPD-02) into which the AsHPPD-02 nucleotide sequence was introduced, the Arabidopsis thaliana T1 plants (AsHPPDm-F372A-02) into which the AsHPPDm-F372A-02 nucleotide sequence was introduced, the Arabidopsis thaliana T1 plants (AsHPPDm-F383W-02) into which the AsHPPDm-F383W-02 nucleotide sequence was introduced, the Arabidopsis thaliana T1 plants (AsHPPDm-F372A-F383W-02) into which the AsHPPDm-F372A-F383W-02 nucleotide sequence was introduced, the Arabidopsis thaliana T1 plants (DBN11726N) into which the control recombinant expression vector DBN11726N was introduced, and the wild-type Arabidopsis thaliana plants (CK) (18 days after sowing) were sprayed respectively with topramezone at three concentrations (100 g ai/ha (four-fold field concentration, 4×), 200 g ai/ha (eight-fold field concentration, 8×), and 0 g ai/ha (water, 0×)), isoxaflutole at three concentrations (140 g ai/ha (two-fold field concentration, 2×), 280 g ai/ha (four-fold field concentration, 4×), and 0 g ai/ha (water, 0×)), and mesotrione at three concentrations (210 g ai/ha (two-fold field concentration, […]), 420 g ai/ha (four-fold field concentration, 4×), and 0 g ai/ha (water, 0×)), to determine the tolerance of Arabidopsis thaliana to the herbicides. The degree of damage caused by the herbicide was measured for each plant according to the proportion of bleached leaf area (the proportion of bleached leaf area=bleached leaf area/total leaf area×100%) 7 days after spraying (7 DAT): the case where there is basically no bleached phenotype is defined as grade 0, the case where the proportion of bleached leaf area is less than 50% is defined as grade 1, the case where the proportion of bleached leaf area is more than 50% is defined as grade 2, and the case where the proportion of bleached leaf area is 100% grade is defined as grade 3.
# (§2) According to the method as described above in point 6 of Example 1, the aforementioned Arabidopsis thaliana T1 plants and wild-type Arabidopsis thaliana plants (CK) (18 days after sowing) were sprayed respectively with topramezone at three concentrations (25 g ai/ha (one-fold field concentration, 1×). 100 g ai/ha (four-fold field concentration, 4×), and 0 g ai/ha (water, 0×)), isoxaflutole at three concentrations (35 g ai/ha (half-fold field concentration, 0.5×). 70 g ai/ha (one-fold field concentration, 1×), and 0 g ai/ha (water, 0×)), and mesotrione at three concentrations (52.5 g ai/ha (half-fold field concentration, 0.5×), 105 g ai/ha (one-fold field concentration, 1×), and 0 g ai/ha (water, 0×)) to detect the tolerance of Arabidopsis thaliana to the herbicides.
# (§3) According to the method as described above in point 6 of Example 1, the aforementioned Arabidopsis thaliana T1 plants and wild-type Arabidopsis thaliana plants (CK) (18 days after sowing) were sprayed with topramezone at three different concentrations (i.e., 100 g ai/ha (four-fold field concentration, 4×), 200 g ai/ha (eight-fold field concentration, 8×) and 0 g ai/ha (water, 0×)), isoxaflutole at three different concentrations (i.e., 140 g ai/ha (two-fold field concentration, 2×), 280 g ai/ha (four-fold field concentration, 4×) and 0 g ai/ha (water, 0×)), and mesotrione at three different concentrations (i.e., 210 g ai/ha (two-fold field concentration, 2×), 420 g ai/ha (four-fold field concentration, 4×) and 0 g ai/ha (water, 0×)) respectively to detect the herbicide tolerance of Arabidopsis thaliana. […]
# [2] = tested on: Arabidopsis thaliana T1 plants; experiment: Mesotrione tolerance of transgenic Arabidopsis thaliana T1 plants (spray, bleached leaf area grade, damage score); format: in vivo; design: Scores: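 damage score 0-100 computed as Σ(N×S)/(T×M)×100 over grades 0-3 with higher meaning more damage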; conditions: Table 12; for Classification and statistics of the grade of pesticide damage Grade 0: number of plants at grade 0; for Classification and statistics of the grade of pesticide damage Grade 1: number of plants at grade 1; for Classification and statistics of the grade of pesticide damage Grade 2: number of plants at grade 2; for Classification and statistics of the grade of pesticide damage Grade 3: number of plants at grade 3; for Scores: pesticide damage score
# Source text: as §1, §2, §3
molecule,measurement,setting,value
B1,Resistance evaluation,[1]; isoxaflutole 140 g ai/ha (2×),Moderately
same,Classification and statistics of the grade of pesticide damage Grade 0,[1]; isoxaflutole 140 g ai/ha (2×),5
same,Classification and statistics of the grade of pesticide damage Grade 1,[1]; isoxaflutole 140 g ai/ha (2×),8
same,Classification and statistics of the grade of pesticide damage Grade 2,[1]; isoxaflutole 140 g ai/ha (2×),1
same,Classification and statistics of the grade of pesticide damage Grade 3,[1]; isoxaflutole 140 g ai/ha (2×),2
same,Scores,[1]; isoxaflutole 140 g ai/ha (2×),33
same,Resistance evaluation,[1]; isoxaflutole 280 g ai/ha (4×),Poorly resistant
same,Classification and statistics of the grade of pesticide damage Grade 0,[1]; isoxaflutole 280 g ai/ha (4×),0
same,Classification and statistics of the grade of pesticide damage Grade 1,[1]; isoxaflutole 280 g ai/ha (4×),0
same,Classification and statistics of the grade of pesticide damage Grade 2,[1]; isoxaflutole 280 g ai/ha (4×),16
same,Classification and statistics of the grade of pesticide damage Grade 3,[1]; isoxaflutole 280 g ai/ha (4×),0
same,Scores,[1]; isoxaflutole 280 g ai/ha (4×),67
same,Resistance evaluation,[2]; mesotrione 210 g ai/ha (2×),Moderately
same,Classification and statistics of the grade of pesticide damage Grade 0,[2]; mesotrione 210 g ai/ha (2×),5
same,Classification and statistics of the grade of pesticide damage Grade 1,[2]; mesotrione 210 g ai/ha (2×),8
same,Classification and statistics of the grade of pesticide damage Grade 2,[2]; mesotrione 210 g ai/ha (2×),3
same,Classification and statistics of the grade of pesticide damage Grade 3,[2]; mesotrione 210 g ai/ha (2×),0
same,Scores,[2]; mesotrione 210 g ai/ha (2×),29
same,Resistance evaluation,[2]; mesotrione 420 g ai/ha (4×),Poorly resistant
same,Classification and statistics of the grade of pesticide damage Grade 0,[2]; mesotrione 420 g ai/ha (4×),0
same,Classification and statistics of the grade of pesticide damage Grade 1,[2]; mesotrione 420 g ai/ha (4×),8
same,Classification and statistics of the grade of pesticide damage Grade 2,[2]; mesotrione 420 g ai/ha (4×),7
same,Classification and statistics of the grade of pesticide damage Grade 3,[2]; mesotrione 420 g ai/ha (4×),1
same,Scores,[2]; mesotrione 420 g ai/ha (4×),52

# Source: patent publication US20250043302A1, “MUTATED HYDROXYPHENYLPYRUVATE DIOXYGENASE POLYPEPTIDE, AND CODING GENE AND USE THEREOF” (BEIJING DABEINONG BIOTECHNOLOGY CO., LTD., priority 2021, published 2025)
